Results published in the DeepSol protein solubility set.

test: soluble on expression in E. coli; label from the status in PepcDB or PDB records

| Sequence | soluble on expression in E. coli |
| --- | --- |
| MYFPIVALIGRYQDTGLDAPLTALAQMLTQAGRRVLVEAETARNAGVSGYPVADWDEIGRTATLAVVMGGDGTVLGAARHLAPYGVPLIGINHGRLGFITDIPLQDAHDALGRVLEGNYQAEDRMLLQGGVWRGEQQMYSASAVNDVVLNRAGRGGMIEVRVELDGAFMYTQRADGLIIATPTGSTAYSLSANGPILHPGMNAMVLVPVAPQTLSNRPIVIPDSGVLNMTLTAMGRVEIGASVHFDMQTWSDLQPGDRITVQRAPHIIRFVHPEGYSFFSTLRRKLHWNLMPQATDNLELEHHHHHH | not soluble |
| MYFVDRTAVVLKPTARFLEWLKSTDENMPDLTIEQLRANCSVFLVPQFDEPEAVVSYFDERYRQIFEAELAGWDIDKDKWPQDMGLKAFWEFFDIEIHDIVLNMEEAELNITPVFDNMM | soluble |
| MYHSLFESLCMVPDPRIERKKIYPLDFLLLIVFLSTLSGNTSWYEIEDYAEEYEEELKSLYEMLTGHQLMHTMPSHDTLNRSISLLDVEAFEGAYKRWIEGFISATSGKHICIDGKTMRGVKKLSFDTQSHVVSAFSPQDMCSLAQLYIDRKTNEIPAIHQLLDLLDLNGAVVSIDAIGTQTAIAEQIIDKGGNYVLCVKANQSLSLQEIEAYFCPLFQKHILLDEQTELSHGRIETRRYESILNPLEIEANEVLTRWKGLRSIHKVVRKRRDKKSDKTSEEVAYYISSLTDVSSLKQAIRGHWAIENKLHHCLDVYFGHDASHKRTRNVAQIMDIIQKINLLIIERLKTNMKSSIPRIQKKLARMKPQQLITIQF | not soluble |
| MYIGGTGVEGYHHLFKEILDNAVDEALAGYATEILVRLNEDGSLTVEDNGRGIPVDLMPEEGKPAVEVIYTTLHSGGKFEQGAYKVSGGLHGVGASVVNALSEWTVVEVFREGKHHRIAFSRGEVTEPLRVVGEAPRGKTGTRVTFKPDPEIFGNLRFDPSKIRARLREVAYLVAGLKLVFQDRQHGKEEVFLDKGGVASFAKALAEGEDLLYEKPFLIRGTHGEVEVEVGFLHTQGYNAEILTYANMIPTRDGGTHLTAFKSAYSRALNQYAKKAGLNKEKGPQPTGDDLLEGLYAVVSVKLPNPQFEGQTKGKLLNPEAGTAVGQVVYERLLEILEENPRIAKAVYEKALRAAQAREAARKARELVRRQNPLESDELPGKLADCQTENPEEAELFIVEGDSAGGSAKQGRDRRFQAILPLRGKILNVEKAGLSKALKNAEVRAMVSAIGVGIGGDGEAHFDLEGLRYHKIIIMTDADVDGSHIRTLLLTFFYRYMRPLIERGHVYIAQPPLYRLQVGKKVEYLYSDEELQARLKELEGKHYEVQRFKGLGEMNPEQLWETTMNPEKRVLKRVELQDALEASELFEKLMGQEVAPRREFIEEHARYAELDI | soluble |
| MYIVIAGGGEMGGELARALEKTHDVVVIDRNPQARERFASLDVKVVVGGATDPDTLREAGVDRADLFVASTDSDEINLLASLLAKGLGAKEAFCFVGKGGYVEVLTDPRTAEILGTRIDRVLWPQRAMAREIVEVILVPWAVDTEVLAGGRLRFVEYRVKEGGEYVHRLLSGEKWPEGVLLAGVVREGTFLSFAHPEFPELILEPGDKLLFVATQKAFSELAAYFTEGPGVRRVMVIGGGNVGFMVAQGLLKRRVEVVIVERNAERCQWLSEELPGALVIQGDGTDIELLEAEGMAEADAVVAVTDHDEKNLLASLLAKQMGVRKVITRVSRSETRRLFEQVGIDLALTPRQAAVREVLDWIGPENVEHIATLDESIEVLEVLVSEGAAPKALRDLVRPDAVPVALERDHRIFLYEEGLGLLPGDRLYLVAAREVADEVLAPFFPE | soluble |
| MYKLDHLNHNTLDESSLELHETPKGYTNVALFGLDSRDGELSGGVRSDSIMIVSINNKTGDVKIISVYRDTLLKQQDGSYEKANAAYSFGGPQEAVAMLNRNLDLDITKYASVNFNSLADIIDILGGVEVELTSEEIFWLNGYTAETSQVVGRQTHTLDENSPGVHNLDGIQAVSYTRIRYTAGDDFKRAERQRIILQKMIQKLKTAGPVKWNKILDQVLPEISTNMTTPDIMKLGLNIFRYKIGETKGFPFDITTSENVIGLEGSYAVAIGHADNVRQLHEQLFGETGYQPSDEVQQISQDVAYLTGVLEHHHHHH | soluble |
| MYKQILVPVDLNDQGFSDRAVELAVWQAKQANAEIHLLTVLPGIHMSMVATYFPKDAAAKMKQDVKQQLKAFASEHIDDEVIYKVHVAEGKAYATILDYAERLGADLIIMPSHKRSKINKVMLGSVASKVVEYSPINVMVVKPQG | not soluble |
| MYNFFRTVPRANRNEITFYPDYEEEGQKKKKTRSMFSWLGGDSSKKKNKEVLETVSEGLRKIYKQKLLPLEEFHKFHDFHSPALDDPDFDAKPMILLVGQYSTGKTTFIRYLLESDFPGIRIGPEPTTDRFIAVMHGDEEGSIPGNALVVDAKKQFRALSGFGNAFLNRFQCSTLPNQVLESVTIVDTPGILSGEKQRIDRGYDFTGVLEWFAERVDRIILLFDAHKLDISDEFKRCIEALAGNEDKIRIVLNKSDMVDHQQLMRVYGALMWSLGKVFKTPEVSRVYLGSFWDHPLHYDLNRRLFQDEQHDLFQDLQALPRNAALRKLNDLIKRARLAKVHAYIIAELRKQMPSMIGKDKKKKDLIQNLDKIYEQLQREHNISPGDFPDVNKMREKLQTQDFSKFNPLKPKLLEVVDGMLATDIARLMAQIPKEEAAAPAGSNGSADPTVRGGAFSQTTEAETPFGFGRGEGFDKGADEAEWVVSRERTTADSTFESLGPVNGYLSGRAAKEHMVKSKLPNSVLGKVWKLADIDKDGQLDADEFALANYLINLKLEGHEIPSELPKHLIPPSKRGEQDPVYPSLNDNDE | soluble |
| MYNLHREKIFMSYNQNKQYLEDNPEIQEKIELYGLNLLNEVISDNEEEIRADYNEANFLHPFWMNYPPLDRGKMPKGDQIPWIEVGEKAVGSKLTRLVSQREDITVREIGLPTGPDERYLLTSPTIYSLTNGFTDSIMMFVDIKSVGPRDSDYDLVLSPNQVSGNGDWAQLEGGIQNNQQTIQGPRSSQIFLPTIPPLYILSDGTIAPVVHLFIKPIYAMRSLTKGDTGQSLYKIKLASVPNGLGLFCNPGYAFDSAYKFLFRPGKDDRTKSLLQKRVRVDLRVLDKIGPRVMTIDMDK | soluble |
| MYPKQFLKFGETSLFQETVLRCLEVSDISEVFVVTNEAQKFFVIGQIKEAGYSIPPENILIEPEGKNTLPAIFFGMKEIEKKFGDSIVGVFSSDHVLDRAAMATISSAENLASDYLVTFGVVPTFPHTGYGYIKASEACSPGYRVSEFREKPDFETAKKYIEEGCLWNSGMFLFETRLFFEEARKHAPSVYGCFEKEGDINQIYECVDNISIDYGIMEKSDKVAVVRLDHKWSDLGNFAAIYDELEKDSVGNVIHDCDPMLLNSDGNLVYSRCGKIVSLIDVKDMVVVDTSDALLICPKSSSQKVKEIVSELKGRKDERAFIGQTVYRPWGSYTLLDASPGHKIKNITVLSDHKLSLQLHYHRSEHWVVVKGMACVEVDGKQFFLGPGESTFIRAGQKHRLSNPGKLPLEIIEVQLGELVDEEDIVRFDDVYGRRLEHHHHHH | soluble |
| MYQTKITGNRLYHTVSKGYGDSVTLFGKTDQGETPMSLLVIALSSCVTMCVQGFYHRQFQQDTLAVSVEASYEEEVFELLVRIDDVLDDKKKADLLAYIGTYCRVKQLLKPEVTVTITLEGLSHV | not soluble |
| MYREFYGLTEKPFSKTPDPRYLFLSRGHREALARLQYAVEERELALLTGDIGCGKTTISRALMDAVGNDGCFCFIVNPRLSAVEFLRTVARSLGIAEPAAAKDELLRQLTEAVYRLEGEKRCPVIIIDEAQLIPDQEVFDEIRLLTNFQLDDRNLMSVILMGQPELRQILSEPAHEALRQRIAMHYHLQPLSLEETLEYVDFRVEVAGGPQGLFSPDAIRRIYELSGGVPRKINILATNALLVGFGKDSAWIDASLVEELRDEASLYLEHHHHHH | not soluble |
| MYYGIKALTVGRGESVRAKITTTIEEALLNKAKALAKQEGLSGANAIIERALELYFTSIQSEVWEKSLSSGWIKKLVLKRDSILYENIKCRKTMENCRPDDYTPESLKAKGWKKV | not soluble |
| MYYPFVRKALFQLDPERAHEFTFQQLRRITGTPFEALVRQKVPAKPVNCMGLTFKNPLGLAAGLDKDGECIDALGAMGFGSIEIGTVTPRPQPGNDKPRLFRLVDAEGLINRMGFNNLGVDNLVENVKKAHYDGVLGINIGKNKDTPVEQGKDDYLICMEKIYAYAGYIAINISSPNTPGLRTLQYGEALDDLLTAIKNKQNDLQAMHHKYVPIAVKIAPDLSEEELIQVADSLVRHNIDGVIATNTTLDRSLVQGMKNCDQTGGLSGRPLQLKSTEIIRRLSLELNGRLPIIGVGGIDSVIAAREKIAAGASLVQIYSGFIFKGPPLIKEIVTHI | soluble |
| MYYVGIMSGTSLDGIDAVLVDFSGPSFSLLHTCYIPYDQSLRAALLGLNQAGENELHRAAILSNQLSGWYAQAVGRLLEKSGIDPGEIIAVGCHGQTIRHCPQPENGYSIQLVNGALLAELTGMTVVTDFRSRDIAAGGQGAPLVPAFHHEMFAHRDIHRLIINIGGITNITSLPVSGGVNGFDCGPGNMLMDAWCLKHTGMTYDHNGSWAESGRVINPLLENLLNFPYFSLPPPKSTGREMFSLDWLQPCLRGDEATQDVQSTLLQLTVRTITDSVETYYPAVRELYLCGGGAHNGTLVTRLQQQLPGRRINLTDALGIEADWVEACAFAWLARQSIERAPGNLPAVTGATGSRTLGAIYPA | not soluble |
| NATERSPVIIGLAGFTGSGRSFLNRTYTSMDFLTALKEIDEKRSDLGFIIVLPDVMTGLYGNQYLNSSAVGNYEDFIVKDIVGIIRERFGERPMGVFGKSSGGFGSYTLAVRHPDIFSGFIDVSGDSAFEYVYIPDFPDTYKEIRRQGLYRWFDEIHRKLSLQNQDIKVANIVAMSAFYSPDPGSPMGISLPFDIETGELIESVWNRWLKFDPARNIADYMDVLRDMAIFLQVGAKDEFHTDIGIGTMHRKLEQENVVHFYEVYDSGHFGIDYFYLKSLPLLIELIEQ | not soluble |
| NATQINEELYRLLEDTEILNQEITEGLLKGFEVPDAGVAIQLSKRDVVYPARILIIVLSEMWRFGLTKQSESFLAQVLTTIQKVVTQLKGNDLIPSGVFWLANVRELYSFVVFALNSILTEETFKNGMTDEEYKEYVSLVTELKDDFEALSYNIYNIWLKKLQKQLQKKAINAVVISESLPGFSAGETSGFLNKIFANTEEYTMDDILTFFNSIYWCMKSFHIENEVFHAVVTTLLNYVDAICFNELIMKRNFLSWKRGLQLNYNVTRLEEWCKTHGLTDGTECLQHLIQTAKLLQVRKYTIEDIDILRGICYSLTPAQLQKLISQYQVADYESPIPQEILRYVADIVKKEAALSSSGNDSKGHEHSSSIFITPETGPFTDPFSLIKTRKFDQVEAYIPAWLSLPSTKRIVDLVAQQVV | soluble |
| NDVKRALEVEEINKLLNEVPLKRLPEDLVRCRVWANLMFQLRGMPFVDLAFLHKSDLKGNTLSYRRHKTGGQMIVDIPPTAMELIRQYQNTDCNSPYLFPILSGTKTGEELYIEYQQALRIMNYNLGRLARRCGVITKVSSYTTRHTWATLAKYCNFSEQLICEAFGHSSVKVTETYLKNFKYEEIKKANDAI | not soluble |
| NEDCNTIFGADFSHEGETPGLGAEITRSEFSGQFIGKEIFKEGEFRSVAVVKKGQKAEGKDYVDGISGGTLTSDGVNEMLISSLRPYALYLMNNVKK | not soluble |
| NFDTNMFKLENYVKEKYSLESLEIIPNEFDDTPTILSERISQVAAGVLRNLIDDNMKIGFSWGKSLSNLVDLIHSKSVRNVHFYPLAGGPSHIHAKYHVNTLIYEMSRKFHGECTFMNATIVQENKLLADGILQSRYFENLKNSWKDLDIAVVGIGDFSNKGKHQWLDMLTEDDFKELTKVKTVGEICCRFFDSKGKEVYENLQERTIAISLEDLKNIPQSLAVAYGDTKVSSILSVLRANLVNHLITDKNTILKVLEEDGDL | soluble |
| NGAFFCNECDCRFSEEASLKRHTLQTHSDK | soluble |
